Laboratory results: PMC2789240, “Comparative structural, kinetic and inhibitor studies of Trypanosoma brucei trypanothione reductase with T. cruzi^” (Molecular and Biochemical Parasitology, 2010)

Test system: N[C@@H](CCC(=O)N[C@H]1CSSC[C@H](NC(=O)CC[C@H](N)C(=O)O)C(=O)NCC(=O)NCCCNCCCCNC(=O)CNC1=O)C(=O)O
Test: purified protein, by the assay type
Settings: pH 7.4, 25.0 °C

Substance	Km (other: saturating NADPH)	Km (other: 340 nm assay)
TbTryR (recombinant T. b. brucei trypanothione reductase) (Trypanosoma brucei brucei TREU927)	2.35 ± 0.07 µM	
TbTryR (Trypanosoma brucei brucei TREU927)		6.9 ± 0.7 µM
